The target in assay [1] is HIV-1 Gag, 6xHis-tagged, purified (HIV-1). Kind of assay: BLI; biotinylated eEF1 subunit (eEF1A1, eEF1B, eEF1D or eEF1G) immobilised on streptavidin biosensor; RT subunits, RT heterodimer, Gag or RTp66 mutants as analytes at 90, 30 and 10 nM (mutants at 90 nM); kinetic buffer 1 mM phosphate, 15 mM NaCl, 0.002% Tween-20, 0.1 mg/ml gelatine, 1000 rpm, OctetRed. Particulars: both partners purified. In general terms: BLI is a label-free optical method that tracks binding on a fibre tip over time.

Assay [2] addresses T1, HIV-1 RT p66, 6xHis-tagged, purified (gift) (HIV-1, UniProt P04585 588-1147).
T1 construct: source: E. coli, purified; gift
Described as above. Particulars: both partners purified.

The values below come from paper PMC4666417, “Specific Interaction between eEF1A and HIV RT Is Critical for HIV-1 Reverse Transcription and a Potential Anti-HIV Target” (PLoS Pathogens, 2015).

B1: eEF1A1 (eukaryotic elongation factor 1 subunit A1), MYC/DDK-tagged (natural protein, human, UniProt P68104 1-462, looked up)
chain: MGKEKTHINIVVIGHVDSGKSTTTGHLIYKCGGIDKRTIEKFEKEAAEMGKGSFKYAWVLDKLKAERERGITIDISLWKFETSKYYVTIIDAPGHRDFIKNMITGTSQADCAVLIVAAGVGEFEAGISKNGQTREHALLAYTLGVKQLIVGVNKMDSTEPPYSQKRYEEIVKEVSTYIKKIGYNPDTVAFVPISGWNGDNMLEPSANMPWFKGWKVTRKDGNASGTTLLEALDCILPPTRPTDKPLRLPLQDVYKIGGIGTVPVGRVETGVLKPGMVVTFAPVNVTTEVKSVEMHHEALSEALPGDNVGFNVKNVSVKDVRRGNVAGDSKNDPPMEAAGFTAQVIILNHPGQISAGYAPVLDCHTAHIACKFAELKEKIDRRSGKKLEDGPKFLKSGDAAIVDMVPGKPMCVESFSDYPPLGRFAVRDMRQTVAVGVIKAVDKKAAGAGKVTKSAQKAQKAK
modifications: biotinylated with EZ-Link Sulfo-NHS-Biotin where immobilised on the biosensor
notes: human eEF1A1, full-length; Used as analyte (a1, a2, a5) and, biotinylated, as immobilised ligand (a3); also called MYC/DDK-eEF1A1; purified eEF1A; source: HEK293 cells, bought: OriGene; not shown: MYC, C-terminal, kept; DDK, C-terminal, kept
B1: in assay [1], the Kd (commonly a measure of binding affinity in units of concentration) was determined as 21.5 ± 11.1 nM; the koff (usually the first-order rate constant of dissociation) was 0.00188 s⁻¹; the kon (in general, a measure of how fast the partners come together) was 87500 M⁻¹ s⁻¹. Also, in assay [2], binding was put at a Kd of 3.19 ± 1.08 nM, the koff is 0.000222 s⁻¹ and the kon stood at 69500 M⁻¹ s⁻¹.
